Measured values taken from patent US10280218B2, “Antibodies binding to BMP4, and uses thereof” (ACADEMISCH MEDISCH CENTRUM, priority 2014, dated 2019).

T1: BMP2 (human)
T1 chain: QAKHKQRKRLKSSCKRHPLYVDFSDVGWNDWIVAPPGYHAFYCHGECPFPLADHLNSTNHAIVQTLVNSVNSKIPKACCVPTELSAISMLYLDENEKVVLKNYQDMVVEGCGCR

T2: BMP4 (Homo sapiens, UniProt P12644)
T2 sequence (P12644 293-408): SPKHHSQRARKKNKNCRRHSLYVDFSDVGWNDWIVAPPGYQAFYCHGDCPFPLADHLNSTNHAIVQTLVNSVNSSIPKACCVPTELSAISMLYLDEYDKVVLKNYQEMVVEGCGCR

B1: hNoggin (protein)
chain: QHYLHIRPAPSDNLPLVDLIEHPDPIFDPKEKDLNETLLRSLLGGHYDPGFMATSPPEDRPGGGGGAAGGAEDLAELDQLLRQRPSGAMPSEIKGLEFSEGLAQGKKQRLSKKLRRKLQMWLWSQTFCPVLYAWNDLGSRFWPRYVKVGSCFSKRSCSVPEGMVCKPSKSVHLTVLRWRCQRRGGQRCGWIPIQYPIISECKCSC
B2: C8E7: E7 linked to C8, hetero-dimer VHH bihead (protein)
chain: EVQLVESGGGLVQAGGSLRLSCAASGRTFRINDMGWYRQAPGKSRDMVARITSGGNTNYADSVKGRFTISRDNAKNTVYLQMNSLKPEDTAVYYCNADGLRFDSTRYRPFDSWGQGTQVTVSSGGGGSGGGGSEVQLVESGGGLVQAGGSLRLSCAASGSIRGFVAMAWYRQAPGKQREWVATVTNGGTLYGDSVKGRFTGSRDNAKNTVYLQMNSLKPEDTAVYYCALRQIGASGYDYWGQGTQVTVSS

Assays:
BMP2 = biological target: T1, BMP2; assay: SPR
endogenous BMP activity = assay: BRE-luciferase activity of supernatants of mouse intestinal organoid cultures; assay type: cell-based; conditions: supernatants of day 3; C4C4 100 ng/ml, C8C8 500 ng/ml or 5 μg/ml
Experimental: (§1) Finally, the VHHs were tested in an intestinal organoid culture system for their ability to neutralize the function of BMP4 ex vivo. Inhibition of BMP activity is one of the requirements to maintain Intestinal Stem Cells in vitro cultured as “organoids” that mimic crypt-villus structures and is usually provided by the addition of Noggin to the media. Murine small intestine organoids were cultured in the presence or absence of the VHH biheads and compared to Noggin. To precisely determine which BMPs are present in these cultures, BMP secretion was measured in the conditioned media of intestinal organoids grown without Noggin for three days. Whereas BMP2, BMP4 and BMP6 could be detected by ELISA (FIG. 14A), BMP5 levels were negative, most likely due to the low sensitivity of the ELISA assay (>250 pg/mL), and not due to the lack of BMP5 in these cultures. Indeed, analysis of the protein lysates of these organoids, detected the presence of BMP2, BMP4, BMP5 and BMP6 (FIG. 14B). Next, freshly isolated crypts from murine small intestines were cultured with the VHHs and tested for their ability to provide endogenous BMP inhibition and to sustain organoid cultures ex vivo. […]
(§2) Organoids were cultured as previously described (Sato et al., 2009). […] Crypts were counted and resuspended in matrigel. […]

[1] = test system: mouse intestinal organoids; assay: Ex vivo mouse intestinal organoid culture (number and growth of organoids); assay type: cell-based; conditions: VHHs in place of Fc-Noggin, 5 days
Experimental: as §1, §2

BMP4 [2] = biological target: T2, BMP4; assay: BMP specificity of VHH antibodies (summary of binding and inhibition of BMP function); design: purchased R&D systems; key: ●▪: Binding and inhibition of BMP function.; ●□: Binding, but no inhibition.; ○: No binding; conditions: summary of SPR and functional experiments
Excerpt: Thus, we have generated several VH Hs that can be classified into four groups (Table 3): BMP4, BMP2/4, BMP2/4/5 and BMP2/4/5/6-specific.

BMP4 [3] = biological target: T2, BMP4; assay: Phosphorylation of SMAD1/5/8 in EPC2-hTERT cells (western blot); assay type: cell-based; design: purchased R&D Systems; conditions: 100 ng/ml BMP4, 4 hours; indicated concentrations
Experimental: EPC2-hTERT cells were stimulated with mouse BMP4 and pSMAD activation detected by Western Blotting.
To detect phosphorylation of SMAD1/5/8 in vitro, EPC2-hTERTs were cultured in 24-well plates and activated with 100 ng/ml of BMP2, BMP4, BMP5, BMP6 or BMP7 (R&D Systems) for 4 hours with or without VHH at the indicated concentrations. After activation, each well was washed twice with ice-cold PBS and lysed with 100 μl M-PER lysis buffer (Sigma-Aldrich, MO, United States) containing Halt Protease and Phosphatase Inhibitor Cocktail (Thermo Scientific, Landsmeer, The Netherlands). Cell debris were pelleted and supernatant was collected. 15 μg of protein was then separated by 10% SDS-PAGE and transferred onto a PVDF membrane (Millipore, Amsterdam, The Netherlands). The blots were then blocked with 5% milk in Tris-buffered saline supplemented with 0.1% Tween-20 (TBST) for 1 hour at room temperature and washed in TBST before overnight incubation at 4° C. with antiphospho-SMAD1/5/8 (Cell Signalling), anti-βactin (Santa Cruz) or anti-GAPDH (Millipore) in 5% Bovine Serum Albumin (BSA). […] After a final wash with TBST, blots were incubated for 5 minutes in LumiGlow (BIOKE, Leiden, The Netherlands) and then chemiluminescence was detected using a Fuji LAS4000 illuminator (Fujifilm Medical Systems, Stamford, Conn.). Protein was quantitated with Image).

Molecule | Kd (BMP2) | inhibition of endogenous BMP activity ex vivo (BRE-luciferase activity of organoid supernatants) (endogenous BMP activity) | maintenance of organoid culture growth / stem cell proliferation [1] | BMP4: binding and inhibition of BMP function (BMP4 [2]) | inhibition of BMP4 signaling (pSMAD1/5/8), dimer compared to monomer (BMP4 [3])
B1 | 0.961 nM | – | – | – | –
B2 | – | to the same level as the natural inhibitor Noggin | able to maintain culture growth of organoids | ●▪ | better at inhibiting both BMP2 and BMP4 as compared to the E7 monomer
